Measurements from paper PMC6536551, “The viral protein corona directs viral pathogenesis and amyloid aggregation” (Nature Communications, 2019).

Target: the molecule itself
Assay: thioflavin-T fluorescence

B1: NNFGAIL peptide (model amyloidogenic peptide derived from islet amyloid polypeptide, IAPP) (peptide)
peptide: NNFGAIL
notes: […]; text and methods print NNFGAIL; source: synthetic peptide (Pepscan)
B1: binds.
